Source: the supplement of paper PMC3353916
± gives the standard deviation of the averaged measurements.

Tested on: Sindbis virus TE/5'2J-GFP
Assay: percent infected (GFP+ in RFP+ ISG-expressing cells); higher = more infection (less antiviral activity)
Procedure: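 Confirmatory testing of 87 ISGs. Triplicate wells of BHK/HA-Zeo (control) or BHK/NZAP-Zeo (ZAP) cells were transduced with lentiviruses co-expressing a human ISG plus TagRFP, then infected 48 h later with SINV TE/5'2J-GFP (moi 5). The % GFP+ cells among RFP+ cells was measured by flow cytometry at 8 h post infection. Fluc lentivirus served as control. Three independent experiments.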

[1] = experiment: confirmatory screen 1, BHK/HA-Zeo (control)
[2] = experiment: confirmatory screen 1, BHK/NZAP-Zeo (ZAP)
[3] = experiment: confirmatory screen 2, BHK/HA-Zeo (control)
[4] = experiment: confirmatory screen 2, BHK/NZAP-Zeo (ZAP)
[5] = experiment: confirmatory screen 3, BHK/HA-Zeo (control)
[6] = experiment: confirmatory screen 3, BHK/NZAP-Zeo (ZAP)
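Further: Interferon-defective BHK-21 derivatives, ZAP line overexpressing the rat ZAP N-terminal zinc finger domain fused to Zeocin resistance, GFP scored within live singlet TagRFP+ cells.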

Row | Sequence | percent infected [1] [%] | percent infected [2] [%] | percent infected [3] [%] | percent infected [4] [%] | percent infected [5] [%] | percent infected [6] [%]
1 | MAQASPPRPERVLGASSPEARPAQEALLLPTGVFQVAEKMEKRTCALCPKDVEYNVLYFAQSENIAAHENCLLYSSGLVECEDQDPLNPDRSFDVESVKKEIQRGRKLKCKFCHKRGATVGCDLKNCNKNYHFFCAKKDDAVPQSDGVRGIYKLLCQQHAQFPIIAQSAKFSGVKRKRGRKKPLSGNHVQPPETMKCNTFIRQVKEEHGRHTDATVKVPFLKKCKEAGLLNYLLEEILDKVHSIPEKLMDETTSESDYEEIGSALFDCRLFEDTFVNFQAAIEKKIHASQQRWQQLKEEIELLQDLKQTLCSFQENRDLMSSSTSISSLSY [PHF11] | 76.3 ± 5.1 | 50.3 ± 2.9 | 91.99 ± 0.75 | 93.69 ± 0.2 | 89.11 ± 0.58 | 89.89 ± 0.28
2 | MASGRARCTRKLRNWVVEQVESGQFPGVCWDDTAKTMFRIPWKHAGKQDFREDQDAAFFKAWAIFKGKYKEGDTGGPAVWKTRLRCALNKSSEFKEVPERGRMDVAEPYKVYQLLPPGIVSGQPGTQKVPSKRQHSSVSSERKEEEDAMQNCTLSPSVLQDSLNNEEEGASGGAVHSDIGSSSSSSSPEPQEVTDTTEAPFQGDQRSLEFLLPPEPDYSLLLTFIYNGRVVGEAQVQSLDCRLVAEPSGSESSMEQVLFPKPGPLEPTQRLLSQLERGILVASNPRGLFVQRLCPIPISWNAPQAPPGPGPHLLPSNECVELFRTAYFCRDLVRYFQGLGPPPKFQVTLNFWEESHGSSHTPQNLITVKMEQAFARYLLEQTPEQQAAILSLV [IRF9] | 95.7 ± 1.1 | 77.9 ± 2.2 | 95.77 ± 0.51 | 95.5 ± 0.37 | 94.29 ± 0.52 | 92.97 ± 0.35
3 | MASVAVDPQPSVVTRVVNLPLVSSTYDLMSSAYLSTKDQYPYLKSVCEMAENGVKTITSVAMTSALPIIQKLEPQIAVANTYACKGLDRIEERLPILNQPSTQIVANAKGAVTGAKDAVTTTVTGAKDSVASTITGVMDKTKGAVTGSVEKTKSVVSGSINTVLGSRMMQLVSSGVENALTKSELLVEQYLPLTEEELEKEAKKVEGFDLVQKPSYYVRLGSLSTKLHSRAYQQALSRVKEAKQKSQQTISQLHSTVHLIEFARKNVYSANQKIQDAQDKLYLSWVEWKRSIGYDDTDESHCAEHIESRTLAIARNLTQQLQTTCHTLLSNIQGVPQNIQDQAKHMGVMAGDIYSVFRNAASFKEVSDSLLTSSKGQLQKMKESLDDVMDYLVNNTPLNWLVGPFYPQLTESQNAQDQGAEMDKSSQETQRSEHKTH [ADFP] | 91.4 ± 2 | 68 ± 2.8 | 96.84 ± 0.14 | 95.665 ± 0.052 | 88.3 ± 0.9 | 89.1 ± 1.9
4 | MASVIPASNRSMRSDRNTYVGKRFVHVKNPYLDLMDEDILYHLDLGTKTHNLPAMFGDVKFVCVGGSPNRMKAFALFMHKELGFEEAEEDIKDICAGTDRYCMYKTGPVLAISHGMGIPSISIMLHELIKLLHHARCCDVTIIRIGTSGGIGIAPGTVVITDIAVDSFFKPRFEQVILDNIVTRSTELDKELSEELFNCSKEIPNFPTLVGHTMCTYDFYEGQGRLDGALCSFSREKKLDYLKRAFKAGVRNIEMESTVFAAMCGLCGLKAAVVCVTLLDRLDCDQINLPHDVLVEYQQRPQLLISNFIRRRLGLCD [UPP2] | 74.9 ± 4.2 | 43.1 ± 2.3 | 89.79 ± 0.72 | 93.4 ± 1.3 | 83.4 ± 1.3 | 88.3 ± 1.5
5 | MATERSRSAMDSPVPASMFAPEPSSPGAARAAAAAARLHGGFDSDCSEDGEALNGEPELDLTSKLVLVSPTSEQYDSLLRQMWERMDEGCGETIYVIGQGSDGTEYGLSEADMEASYATVKSMAEQIEADVILLRERQEAGGRVRDYLVRKRVGDNDFLEVRVAVVGNVDAGKSTLLGVLTHGELDNGRGFARQKLFRHKHEIESGRTSSVGNDILGFDSEGNVVNKPDSHGGSLEWTKICEKSTKVITFIDLAGHEKYLKTTVFGMTGHLPDFCMLMVGSNAGIVGMTKEHLGLALALNVPVFVVVTKIDMCPANILQETLKLLQRLLKSPGCRKIPVLVQSKDDVIVTASNFSSERMCPIFQISNVTGENLDLLKMFLNLLSPRTSYREEEPAEFQIDDTYSVPGVGTVVSGTTLRGLIKLNDTLLLGPDPLGNFLSIAVKSIHRKRMPVKEVRGGQTASFALKKIKRSSIRKGMVMVSPRLNPQASWEFEAEILVLHHPTTISPRYQAMVHCGSIRQTATILSMDKDCLRTGDKATVHFRFIKTPEYLHIDQRLVFREGRTKAVGTITKLLQTTNNSPMNSKPQQIKMQSTKKGPLTKRDEGGPSGGPAVGAPPPGDEASSVGAGQPAASSNLQPQPKPSSGGRRRGGQRHKVKSQGACVTPASGC [GTPBP1] | 93.61 ± 0.15 | 64.4 ± 7.3 | 97.42 ± 0.24 | 96.28 ± 0.23 | 88.74 ± 0.67 | 90.6 ± 0.93
6 | MAVMEMACPGAPGSAVGQQKELPKAKEKTPPLGKKQSSVYKLEAVEKSPVFCGKWEILNDVITKGTAKEGSEAGPAAISIIAQAECENSQEFSPTFSERIFIAGSKQYSQSESLDQIPNNVAHATEGKMARVCWKGKRRSKARKKRKKKSSKSLAHAGVALAKPLPRTPEQESCTIPVQEDESPLGAPYVRNTPQFTKPLKEPGLGQLCFKQLGEGLRPALPRSELHKLISPLQCLNHVWKLHHPQDGGPLPLPTHPFPYSRLPHPFPFHPLQPWKPHPLESFLGKLACVDSQKPLPDPHLSKLACVDSPKPLPGPHLEPSCLSRGAHEKFSVEEYLVHALQGSVSSGQAHSLTSLAKTWAARGSRSREPSPKTEDNEGVLLTEKLKPVDYEYREEVHWATHQLRLGRGSFGEVHRMEDKQTGFQCAVKKVRLEVFRAEELMACAGLTSPRIVPLYGAVREGPWVNIFMELLEGGSLGQLVKEQGCLPEDRALYYLGQALEGLEYLHSRRILHGDVKADNVLLSSDGSHAALCDFGHAVCLQPDGLGKSLLTGDYIPGTETHMAPEVVLGRSCDAKVDVWSSCCMMLHMLNGCHPWTQFFRGPLCLKIASEPPPVREIPPSCAPLTAQAIQEGLRKEPIHRVSAAELGGKVNRALQQVGGLKSPWRGEYKEPRHPPPNQANYHQTLHAQPRELSPRAPGPRPAEETTGRAPKLQPPLPPEPPEPNKSPPLTLSKEESGMWEPLPLSSLEPAPARNPSSPERKATVPEQELQQLEIELFLNSLSQPFSLEEQEQILSCLSIDSLSLSDDSEKNPSKASQSSRDTLSSGVHSWSSQAEARSSSWNMVLARGRPTDTPSYFNGVKVQIQSLNGEHLHIREFHRVKVGDIATGISSQIPAAAFSLVTKDGQPVRYDMEVPDSGIDLQCTLAPDGSFAWSWRVKHGQLENRP [MAP3K14] | 96.4 ± 1.2 | 76.4 ± 1.8 | 97.1 ± 0.15 | 92.2 ± 0.5 | 86.1 ± 1.7 | 80.9 ± 2.1
7 | MDAPHSKAALDSINELPENILLELFTHVPARQLLLNCRLVCSLWRDLIDLMTLWKRKCLREGFITKDWDQPVADWKIFYFLRSLHRNLLRNPCAEEDMFAWQIDFNGGDRWKVESLPGAHGTDFPDPKVKKYFVTSYEMCLKSQLVDLVAEGYWEELLDTFRPDIVVKDWFAARADCGCTYQLKVQLASADYFVLASFEPPPVTIQQWNNATWTEVSYTFSDYPRGVRYILFQHGGRDTQYWAGWYGPRVTNSSIVVSPKMTRNQASSEAQPGQKHGQEEAAQSPYRAVVQIF [FBXO6] | 95.42 ± 0.3 | 65.4 ± 1.8 | 94.14 ± 0.54 | 94.48 ± 0.2 | 90.9 ± 1.1 | 91.46 ± 0.7
8 | MDENNGLLLLELNPPNPWDLQPRSPEELAFGEVQITYLTHACMDLKLGDKRMVFDPWLIGPAFARGWWLLHEPPSDWLERLCQADLIYISHLHSDHLSYPTLKKLAGRRPDIPIYVGNTERPVFWNLNQSGVQLTNINVVPFGIWQQVDKNLRFMILMDGVHPEMDTCIIVEYKGHKILNIVDCTRPNGGRLPMKVALMMSDFAGGASGFPMTFSGGKFTEEWKAQFIKTERKKLLNYKARLVKNLQPRIYCPFAGYFVESHPSDKYIKETNTKNDPNELNNLIKKNSDVITWTPRPGATLDLGRMLKDRTDSKGIIEPPEGTKIYKDSWDFEPYLEILNAALGDEIFLHSSWIKEYFTWAGFKDYNLVVRMIETDEDFNPFPGGYDYLVDFLDLSFPKERPQREHPYEEIHSRVDVIRHVVKNGLLWDELYIGFQTRLQRDPDIYHHLFWNHFQIKLPLTPPNWKSFLMCCEQNGPVILQFSTERTNEPNRNKFSVENKA [CMAH] | 94.7 ± 1.2 | 75.3 ± 1.9 | 95.1 ± 0.29 | 94.26 ± 0.25 | 93.1 ± 0.62 | 92.979 ± 0.089
9 | MDFKIEHTWDGFPVKHEPVFIRLNPGDRGVMMDISAPFFRDPPAPLGEPGKPFNELWDYEVVEAFFLNDITEQYLEVELCPHGQHLVLLLSGRRNVWKQELPLSFRMSRGETKWEGKAYLPWSYFPPNVTKFNSFAIHGSKDKRSYEALYPVPQHELQQGQKPDFHCLEYFKSFNFNTLLGEEWKQPESDLWLIEKCDI [C4orf33] | 96.1 ± 1.3 | 85.8 ± 1.1 | 96.38 ± 0.37 | 94.84 ± 0.39 | 93.81 ± 0.1 | 93.56 ± 0.3
10 | MDSRVSELFGGCCRPGGGPAVGGTLKARGAGSSSGCGGPKGKKKNGRNRGGKANNPPYLPPEAEDGNIEYKLKLVNPSQYRFEHLVTQMKWRLQEGRGEAVYQIGVEDNGLLVGLAEEEMRASLKTLHRMAEKVGADITVLREREVDYDSDMPRKITEVLVRKVPDNQQFLDLRVAVLGNVDSGKSTLLGVLTQGELDNGRGRARLNLFRHLHEIQSGRTSSISFEILGFNSKGEVVNYSDSRTAEEICESSSKMITFIDLAGHHKYLHTTIFGLTSYCPDCALLLVSANTGIAGTTREHLGLALALKVPFFIVVSKIDLCAKTTVERTVRQLERVLKQPGCHKVPMLVTSEDDAVTAAQQFAQSPNVTPIFTLSSVSGESLDLLKVFLNILPPLTNSKEQEELMQQLTEFQVDEIYTVPEVGTVVGGTLSSGICREGDQLVVGPTDDGCFLELRVCSIQRNRSACRVLRAGQAATLALGDFDRALLRKGMVMVSPEMNPTICSVFEAEIVLLFHATTFRRGFQVTVHVGNVRQTAVVEKIHAKDKLRTGEKAVVRFRFLKHPEYLKVGAKLLFREGVTKGIGHVTDVQAITAGEAQANMGF [GTPBP2] | 91.5 ± 3.9 | 64.4 ± 1.3 | 94.39 ± 0.34 | 94.94 ± 0.23 | 94 ± 1.1 | 93.43 ± 0.41
11 | MEKGPVRAPAEKPRGARCSNGFPERDPPRPGPSRPAEKPPRPEAKSAQPADGWKGERPRSEEDNELNLPNLAAAYSSILSSLGENPQRQGLLKTPWRAASAMQFFTKGYQETISDVLNDAIFDEDHDEMVIVKDIDMFSMCEHHLVPFVGKVHIGYLPNKQVLGLSKLARIVEIYSRRLQVQERLTKQIAVAITEALRPAGVGVVVEATHMCMVMRGVQKMNSKTVTSTMLGVFREDPKTREEFLTLIRS [GCH1] | 95.976 ± 0.021 | 74 ± 2 | 95.09 ± 0.34 | 93.4 ± 1.6 | 92.6 ± 0.98 | 92.19 ± 0.15
